Measurements taken from paper PMC9481538, “The interaction between LC8 and LCA5 reveals a novel oligomerization function of LC8 in the ciliary-centrosome system” (Scientific Reports, 2022).

Experiments:
[1] = tested on: HA-tagged LC8; assay: co-immunoprecipitation of LC8 with full-length FLAG-LCA5 in HEK293 cells; type: cell-based, human; details: for co-immunoprecipitation of LC8: HEK-293, FLAG-LCA5 and HA-LC8 co-expressed 48 h, anti-LCA5 and anti-FLAG antibodies
Description: HEK-293 cells were transfected with FLAG-LCA5-pcDNA3.1 + and HA-LC8-pcDNA3.1 + constructs and incubated for 48 h. After 48 h, cells were washed with ice-cold DPBS (Lonza) and lysed on ice with lysis buffer (50 mM TRIS 2 mM EDTA 100 mM NaCl 10% Glycerol and 0.5% IGEPAL supplemented with protease (Sigma Aldrich) and phosphatase (Sigma-Aldrich) inhibitors). Total protein concentration was determined by the BCA kit (Sigma Aldrich). For each co-immunoprecipitation reaction 1 mg total protein was used and 20 μg of anti-lebercilin (19,333-1-AP Proteintech), anti-LC8 (16,811–1-AP Proteintech), polyclonal antibody, anti-FLAG (8146 Cell Signaling Technologies), anti-MYC (2276 Cell Signaling Technologies) or anti-HA (sc-7392 Santa Cruz Biotechnology) monoclonal antibody was added respectively and incubated for 4 h at 4 °C. The immunocomplexes were incubated with protein A/G sepharose beads (Cell Signaling Technologies) overnight. The immunocomplex-containing beads were washed three times in lysis buffer, then two times in detergent-free lysis buffer, proteins were eluted by boiling in 2 × Laemmli buffer. The samples were analyzed by 10% tricine-SDS PAGE. The SDS gel was cut half above the 35 kDa marker band and subsequently blotted onto two separate Amersham Hybond PVDF membrane (GE Healthcare). The LCA5 containing upper half was blotted for 180 min, the LC8 containing lower part was blotted for 80 min. The membranes were blocked in 5% BSA and the LCA5 and LC8 containing parts are incubated with mouse anti-FLAG 1:1000 (8146 Cell Signaling Technologies), and rabbit anti-LC8 1:1000 (ab51603 Abcam) primary antibodies respectively overnight at 4 °C. After washing with TBS-T, membranes were incubated with secondary antibodies (ECL PLEX Goat-Anti-Rabbit IgG CY5 1:1500 and CL PLEX Goat-Anti-Mouse IgG CY3 1:1500, Ge Healthcare) for 1 h at room temperature, then scanned in a Typhoon scanner (GE Healthcare).

[2] = target: T1, LC8 (Homo sapiens, UniProt Q96FJ2); assay: isothermal titration calorimetry, sLCA5 fragments titrated with LC8; type: binding; details: ITC, PBS pH 7.4, 1 mM TCEP, 37 °C; MBP-fused sLCA5 titrated with LC8
T1 construct: 6xHis (N); made in house; host or cells: E. coli BL21 (DE3) Rosetta
Description: LC8 and MBP-fused LCA5 constructs were prepared in PBS supplemented with 1 mM TCEP. Before measurement, protein samples were dialyzed overnight in PBS pH 7.4 (Orange Scientific, OrDial D14 membrane). Peptides were diluted from stock with the buffer used for dialysis. The concentration of samples was determined based on absorbance at 280 nm in the case of proteins, and 205 nm for the peptide. Experiments were performed using MicroCal PEAQ-ITC (Malvern Panalytical), LCA5 peptides were measured at 25 °C, proteins were analyzed at 37 °C. Lebercilin peptide was injected into the cell 18 times 2 μl volumes, with 5 min timing between injections. In case of the protein, LCA5 was placed in the sample cell, and LC8 was injected during 37 injections, 1 μl each. The results were evaluated using MicroCal PEAQ-ITC Analysis Software.

[3] = tested on: GST-fused LC8; assay: GST pull-down of LC8 and sLCA5; type: binding; details: GST-LC8 bait, MBP-, 6x-His-fused sLCA5 prey, PBS, 1 mM DTT, room temperature; result in words
Description: For the pull-down experiments, GST-fused LC8 was used as bait, and MBP-, 6x-His-fused LCA5 variants as prey. For controls, GST and MBP were used. Proteins were expressed in 100 ml cultures of E. coli BL21 (DE3) Rosetta cells as described above. Cells were harvested, resuspended in 5 ml PBS supplemented with 1 mg/ml lysozyme and 1 mM DTT, sonicated and clarified by centrifugation. 20 μl of Glutathione Sepharose 4B (Macherey–Nagel) (75%) resin was used for each experiment. Baits were incubated with the resin for 1 h at room temperature, then washed with PBS supplemented with 1 mM DTT. Prey proteins were added and incubated for one hour. The beads were washed and eluted by boiling in a 2 × SDS sample buffer and analyzed in tricine SDS page according to the protocol of Schagger et al[43].

[4] = target: T1, LC8; assay: SDS-PAGE densitometric analysis of gel filtration fractions (sLCA5:LC8 molar ratio); type: binding; details: SDS-PAGE densitometry; result in words
Description: (§1) For analytical gel filtration a Superose 6 Increase 10/300 (Cytiva) was used with an effective resolution between 5–5000 kDa range and a void volume above 5000 kDa. The column was equilibrated in DPBS supplemented with 200 μM TCEP. The calibration curve was fitted on the chromatogram of gel filtration standard mix (BioRad) with the addition of Dextran Blue to determine the void volume. 100 μl of LCA5 purified protein or LCA5-LC8 complex was injected at the concentration of 30 μM for LCA5 and 150 μM for LC8, with a flow rate of 500 μl/min immediately or after 60 min of incubation at 37 °C. For densitometric analysis, fractions were collected and 200 μl of samples were precipitated in 1.8 ml 96% ethanol at − 80 °C for 2 h. The samples were centrifugated for 30 min at 14,000 g, and dissolved in 15 μl of SDS sample buffer. 10 μl of each sample was run on Tricine-SDS gel. The calibration of the densitometry was performed on samples of known molar ratio of sLCA5 construct and LC8 (see the original gel used for calibration on Suplementary Fig. S16). Data evaluation was performed by using Origin 8 software and Fiji ImageJ software.

[5] = analytical gel filtration; type: physicochemical; details: with LC8, 60 min at 37 °C vs non-incubated complex
Description: as §1

[6] = negative staining transmission electron microscopy of sLCA5-LC8 complexes; type: physicochemical
Description: For TEM negative staining experiments, a JEOL JEM-1011 (JEOL Ltd., Tokyo, Japan) electron microscope was used. The purified LCA5-LC8 complexes or LC8 or LCA5 forms alone were put together by using LCA5-WT or the single or double mutants at 30 μM and LC8 at 150 μM concentration in a buffer of 20 mM Tris 70 mM NaCl, pH 7.4, and incubated at 37 °C for 1 h. The complexes were diluted to a final 0.2 mg/ml concentration in the buffer and applied to 300 mesh formvar/carbon-coated copper grids (SPI Inc., USA). After 2 min of incubation the surplus was removed by filter paper and 1% uranyl acetate was applied for 1 min as negative staining. Images were taken around the middle of the grid at 5000, 50,000, 150,000 and 300,000-fold magnification. The collected data was analyzed by Fiji ImageJ software, and the statistical analysis was carried out in Origin 8 software.

T1 sequence (Q96FJ2 whole entry, the tested form may be a part): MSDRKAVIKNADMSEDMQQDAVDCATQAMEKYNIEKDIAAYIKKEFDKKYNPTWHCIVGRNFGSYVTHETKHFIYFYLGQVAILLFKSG

− TΔS [2]	LC8 content of fraction [4]	Molecule	co-immunoprecipitation of LC8 [1]	co-immunoprecipitation of LC8 ([1]; listed as FLAG-tagged LCA5)	co-immunoprecipitation interaction ([1]; HEK-293, FLAG-LCA5 and HA-LC8 co-expressed, precipitation with anti-HA and anti-LC8 antibodies)	interaction with LC8 (GST pull-down) [3]	void fraction increment on incubation [5]	measured diameter median of spherical complexes ([6]; 30 μM sLCA5 + 150 μM LC8, 37 °C 1 h, 20 mM Tris 70 mM NaCl pH 7.4)	amount of detectable oligomeric particles ([6]; TEM, result in words)
		FLAG-LCA5: full-length LCA5 with N-terminal FLAG-tag (protein, left off: FLAG, N-terminal, kept, full-length LCA5 with N-terminal FLAG-tag) MGERAGSPGTDQERKAGKHHYSYLSDFETPQSSGRSSLVSSSPASVRRKNPKRQTSDGQVHHQAPRKPSPKGLPNRKGVRVGFRSQSLNREPLRKDTDLVTKRILSARLLKINELQNEVSELQVKLAELLKENKSLKRLQYRQEKALNKFEDAENEISQLIFRHNNEITALKERLRKSQEKERATEKRVKDTESELFRTKFSLQKLKEISEARHLPERDDLAKKLVSAELKLDDTERRIKELSKNLELSTNSFQRQLLAERKRAYEAHDENKVLQKEVQRLYHKLKEKERELDIKNIYSNRLPKSSPNKEKELALRKNAACQSDFADLCTKGVQTMEDFKPEEYPLTPETIMCYENKWEEPGHLTLDLQSQKQDRHGEAGILNPIMEREEKFVTDEELHVVKQEVEKLEDEWEREELDKKQKEKASLLEREEKPEWETGRYQLGMYPIQNMDKLQGEEEERLKREMLLAKLNEIDRELQDSRNLKYPVLPLLPDFESKLHSPERSPKTYRFSESSERLFNGHHLQDISFSTPKGEGQNSGNVRSPASPNEFAFGSYVPSFAKTSERSNPFSQKSSFLDFQRNSMEKLSKDGVDLITRKEKKANLMEQLFGASGSSTISSKSSDPNSVASSKGDIDPLNFLPGNKGSRDQEHDEDEGFFLSEGRSFNPNRHRLKHADDKPAVKAADSVEDEIEEVALR	interaction was detected	LC8 was co-precipitated	no				
4.32 kcal/mol	only a trace amount of LC8	sLCA5-ΔVQT: sLCA5 with the three core residues VQT exchanged for three alanines (protein, left off: MBP, N-terminal, kept | His6, C-terminal, kept, sLCA5 with the three core residues VQT exchanged for three alanines) DTDLVTKRILSARLLKINELQNEVSELQVKLAELLKENKSLKRLQYRQEKALNKFEDAENEISQLIFRHNNEITALKERLRKSQEKERATEKRVKDTESELFRTKFSLQKLKEISEARHLPERDDLAKKLVSAELKLDDTERRIKELSKNLELSTNSFQRQLLAERKRAYEAHDENKVLQKEVQRLYHKLKEKERELDIKNIYSNRLPKSSPNKEKELALRKNAACQSDFADLCTKGAAAMEDFKPEEYPLTPETIMCYENKWEEPGHLTLDLQSQKQDRHGEAGILNPIMEREEKFVTDEELHVVKQEVEKLEDEWEREELDKKQKEKASLLER				did not abolish the interaction with LC8			
0.07 kcal/mol		sLCA5-ΔCQS: sLCA5 with alanine mutations in the CQS motif core; VQT motif intact (protein, left off: MBP, N-terminal, kept | His6, C-terminal, kept, sLCA5 with alanine mutations in the CQS motif core; VQT motif intact) DTDLVTKRILSARLLKINELQNEVSELQVKLAELLKENKSLKRLQYRQEKALNKFEDAENEISQLIFRHNNEITALKERLRKSQEKERATEKRVKDTESELFRTKFSLQKLKEISEARHLPERDDLAKKLVSAELKLDDTERRIKELSKNLELSTNSFQRQLLAERKRAYEAHDENKVLQKEVQRLYHKLKEKERELDIKNIYSNRLPKSSPNKEKELALRKNAAAAADFADLCTKGVQTMEDFKPEEYPLTPETIMCYENKWEEPGHLTLDLQSQKQDRHGEAGILNPIMEREEKFVTDEELHVVKQEVEKLEDEWEREELDKKQKEKASLLER				maintained the interaction with LC8	35%	32 nm	notable amount of particles around the edges of the grids
